Results reported in patent publication US6673902B2, “Cyclin D binding factor, and uses thereof” (St. Jude Children's Research Hospital, priority 1996, dated 2004).
Each block holds one molecule with its values, some of them ahead of it.

Key:
Type in all cases: cell-based, mouse
[1] = test system: DMP1-responsive promoter (pGL2BS2); test: Transactivation of luciferase reporter plasmid under control of a DMP1-responsive promoter in NIH-3T3 fibroblasts; conditions: Table 4; DMP1 coexpressed with the additive named as label (DMP1 row: no additive); vector without insert set to 1.0
From the text: Coexpression of a D-type cyclin with DMP1 overrides the ability of DMP1 to transactivate a luciferase gene under the control of an artificial DMP1-responsive promoter (Table 4), as well as the ability of DMP1 to inhibit cell growth.

[2] = test system: 281 bp ARF promoter fragment; test: Transactivation of ARF promoter-luciferase reporter in NIH-3T3 cells; conditions: NIH-3T3, 281 bp ARF promoter fragment-luciferase
Description: Transactivation assays. NIH-3T3 cells were transfected with 4 μg of pGL2-ARFpro BamHI or its DMP1 binding site mutant, with or without increasing amount of pFLEX-DMP1, pEVRFO-Ets1, pCMV-Ets2, pRcRSV-Elfl, pdEB-Fli1, p(IEB-EWS-Fli1 or pCMV-E2F-1 (89-437), and 4 μg β-actin SEAP control vectors [Inoue and Sherr, Mol. Cell. Biol. 18: 1590-1600 (1998); Inoue et al., J. Biol. Chem. 273:29188-29194 (1998); Davis and Roussel, Gene 171:265-269 (1996); Baily et al., Mol. Cell. Biol. 14:3230-3241 (1994)]. Transfections and normalization of luciferase levels with internal control SEAP levels were performed as described [Inoue and Sherr, Mol. Cell. Biol. 18:1590-1600 (1998)].
Similarly, DMP1 deletion mutants defective in transactivation [Inoue and Sherr, Mol. Cell. […] Mutation of the DMP1 binding site within the ARF promoter [changing CCCGGATGC, (SEQ ID NO:33) to CCCGTCGAC, (SEQ ID NO:42)] also completely abolished transactivation by wild-type DMP1 (FIG. 14C, mutant reporter). Therefore, sequences within the −189 to −181 ARF promoter segment were the only ones responsible for DMP1-mediated transactivation. Although Ets1 could bind to a 23 base pair oligonucleotide containing the DMP1 consensus site (FIG. 14B), several Ets proteins were unable to induce significant reporter gene expression from the more complex 281 base pair ARF promoter (FIG. 14C). […]

wild-type MEFs = test: BrdU incorporation / cell cycle arrest in wild-type MEFs; conditions: retroviral infection
Description: (§1) BrdU incorporation and immunofluorescence. Wild-type or ARF-null MEFs (4×10^4 cells) were seeded on gelatin-coated coverslips 16 hours before virus infection. Cells were infected three times with empty vector, or vectors expressing murine DMP1, human c-Myc, human E2F-1, or human Ets1. Cells were labeled 36 hours after virus infection with bromodeoxyuridine (BrdU, Sigma) for 14 hours in complete medium. For pulse labeling, MEFs were treated with 2 μM4-HT for 36 hours and labeled with BrdU for three hours at different intervals throughout the inductive phase. Cells were fixed in ice-cold methanol-acetone (1:1) for 10 min at −20° C. and then were stained with affinity-purified antibodies to DMP1 (AF) [Hirai and Sherr, Mol. Cell. […]
(§2) Based on the above observations, it was determined as to whether introduction of DMP1 would induce synthesis of the endogenous ARF protein in normal diploid fibroblast strains. […] Although the blot was normalized for protein input, the levels of p19^ARF induced by DMP1 were calculated to be 2-fold higher than those induced by Myc, because fewer cells were productively infected with the DMP1 virus in this experiment (see FIG. 15A).

ARF-null MEFs = test: BrdU incorporation / cell cycle arrest in ARF-null MEFs; conditions: retroviral infection
Description: as §1, §2

Luciferase Activity [1]: 5.5
B1: cyclin H: cyclin coexpressed with DMP1 (protein, UniProt Q61458 1-323, looked up)
Cyclin-H: MYHSSSQKRHWTFASEEQLARLRADANRKFKCKAVANGKVLPNDPVFLEPHEELTLCKYYEKRLLEFCSVFKPAMPRSVVGTACMYFKRFYLNNSVMEYHPRIIMLTCAFLACKVDEFNVSSPQFVGNLRESPLGQERALEQILEYELLLIQQLNFHLIVHNPYRPFEGFLIDIKTRYPMLENPEILRKTADDFLSRIALTDAYLLYTPSQIALTAILSSASRAGITMESYLSESLMLKENRTCLSQLLDIMKSMRNLVKKYEPPRSDEVAVLKQKLERCHSSDLALNAVTKKRKGYEDDDYVSKKPKQEEEEWTDDDLVDSL

B2: Ets1: Ets family transcription factor (protein, UniProt P27577 1-440, looked up)
Protein C-ets-1: MKAAVDLKPTLTIIKTEKVDLELFPSPDMECADVPLLTPSSKEMMSQALKATFSGFTKEQQRLGIPKDPRQWTETHVRDWVMWAVNEFSLKGVDFQKFCMSGAALCALGKECFLELAPDFVGDILWEHLEILQKEDVKPYQVNGANPTYPESCYTSDYFISYGIEHAQCVPPSEFSEPSFITESYQTLHPISSEELLSLKYENDYPSVILQDPLQTDTLQTDYFAIKQEVLTPDNMCLGRASRGKLGGQDSFESVESYDSCDRLTQSWSSQSSFNSLQRVPSYDSFDYEDYPAALPNHKPKGTFKDYVRDRADLNKDKPVIPAAALAGYTGSGPIQLWQFLLELLTDKSCQSFISWTGDGWEFKLSDPDEVARRWGKRKNKPKMNYEKLSRGLRYYYDKNIIHKTAGKRYVYRFVCDLQSLLGYTPEELHAMLDVKPDAD
ARF promoter reporter gene expression [2]: slightly inhibitory
cell cycle arrest (wild-type MEFs): behaved indistinguishably from those infected with the control vector
cell cycle arrest (ARF-null MEFs): behaved indistinguishably from those infected with the control vector
